Reference: patent US20160272683A1 (Novo Nordisk, published 2016)
Numbered stars: 1 amine (or outer) side, 2 acyl side, 3 side chain; on linkers, the order of the positions; unused ones are H or OH. * marks the point of attachment. C20 diacid = O=C(O)CCCCCCCCCCCCCCCCCCC(=O)*; C18 diacid = O=C(O)CCCCCCCCCCCCCCCCC(=O)*; γGlu = O=C(O)[C@H](CCC(=O)[*:2])N[*:1]

B1: [N-terminal(C18 diacid-gGlu), des1, 5V, 9V, 10V, 30S, 31G]mimylin (peptide)
peptide: {C18 diacid-γGlu}-ASEVSTAVVGRLSAELHELATLPRTETGSGSP-NH2
SMILES: CC(C)C[C@H](NC(=O)[C@H](CCC(=O)O)NC(=O)[C@H](Cc1c[nH]cn1)NC(=O)[C@H](CC(C)C)NC(=O)[C@H](CCC(=O)O)NC(=O)[C@H](C)NC(=O)[C@H](CO)NC(=O)[C@H](CC(C)C)NC(=O)[C@H](CCCNC(=N)N)NC(=O)CNC(=O)[C@@H](NC(=O)[C@@H](NC(=O)[C@H](C)NC(=O)[C@@H](NC(=O)[C@H](CO)NC(=O)[C@@H](NC(=O)[C@H](CCC(=O)O)NC(=O)[C@H](CO)NC(=O)[C@H](C)NC(=O)CC[C@H](NC(=O)CCCCCCCCCCCCCCCCC(=O)O)C(=O)O)C(C)C)[C@@H](C)O)C(C)C)C(C)C)C(=O)N[C@@H](C)C(=O)N[C@H](C(=O)N[C@@H](CC(C)C)C(=O)N1CCC[C@H]1C(=O)N[C@@H](CCCNC(=N)N)C(=O)N[C@H](C(=O)N[C@@H](CCC(=O)O)C(=O)N[C@H](C(=O)NCC(=O)N[C@@H](CO)C(=O)NCC(=O)N[C@@H](CO)C(=O)N1CCC[C@H]1C(N)=O)[C@@H](C)O)[C@@H](C)O)[C@@H](C)O
notes: also called Ex. #96
B2: [N-terminal(C18 diacid-gGlu), des1, 6T, 9V, 14T, 21E, 30T, 31G, 32T]mimylin (peptide)
peptide: {C18 diacid-γGlu}-ASELTTAVLGRLTAELHELETLPRTETGTGTP-NH2
SMILES: CC(C)C[C@H](NC(=O)[C@H](CCC(=O)O)NC(=O)[C@H](C)NC(=O)[C@@H](NC(=O)[C@H](CC(C)C)NC(=O)[C@H](CCCNC(=N)N)NC(=O)CNC(=O)[C@H](CC(C)C)NC(=O)[C@@H](NC(=O)[C@H](C)NC(=O)[C@@H](NC(=O)[C@@H](NC(=O)[C@H](CC(C)C)NC(=O)[C@H](CCC(=O)O)NC(=O)[C@H](CO)NC(=O)[C@H](C)NC(=O)CC[C@H](NC(=O)CCCCCCCCCCCCCCCCC(=O)O)C(=O)O)[C@@H](C)O)[C@@H](C)O)C(C)C)[C@@H](C)O)C(=O)N[C@@H](Cc1c[nH]cn1)C(=O)N[C@@H](CCC(=O)O)C(=O)N[C@@H](CC(C)C)C(=O)N[C@@H](CCC(=O)O)C(=O)N[C@H](C(=O)N[C@@H](CC(C)C)C(=O)N1CCC[C@H]1C(=O)N[C@@H](CCCNC(=N)N)C(=O)N[C@H](C(=O)N[C@@H](CCC(=O)O)C(=O)N[C@H](C(=O)NCC(=O)N[C@H](C(=O)NCC(=O)N[C@H](C(=O)N1CCC[C@H]1C(N)=O)[C@@H](C)O)[C@@H](C)O)[C@@H](C)O)[C@@H](C)O)[C@@H](C)O
B3: [N-terminal(C18 diacid-gGlu), des1, 6T, 9V, 30S, 31G]mimylin (peptide)
peptide: {C18 diacid-γGlu}-ASELTTAVLGRLSAELHELATLPRTETGSGSP-NH2
SMILES: CC(C)C[C@H](NC(=O)[C@H](CCC(=O)O)NC(=O)[C@H](Cc1c[nH]cn1)NC(=O)[C@H](CC(C)C)NC(=O)[C@H](CCC(=O)O)NC(=O)[C@H](C)NC(=O)[C@H](CO)NC(=O)[C@H](CC(C)C)NC(=O)[C@H](CCCNC(=N)N)NC(=O)CNC(=O)[C@H](CC(C)C)NC(=O)[C@@H](NC(=O)[C@H](C)NC(=O)[C@@H](NC(=O)[C@@H](NC(=O)[C@H](CC(C)C)NC(=O)[C@H](CCC(=O)O)NC(=O)[C@H](CO)NC(=O)[C@H](C)NC(=O)CC[C@H](NC(=O)CCCCCCCCCCCCCCCCC(=O)O)C(=O)O)[C@@H](C)O)[C@@H](C)O)C(C)C)C(=O)N[C@@H](C)C(=O)N[C@H](C(=O)N[C@@H](CC(C)C)C(=O)N1CCC[C@H]1C(=O)N[C@@H](CCCNC(=N)N)C(=O)N[C@H](C(=O)N[C@@H](CCC(=O)O)C(=O)N[C@H](C(=O)NCC(=O)N[C@@H](CO)C(=O)NCC(=O)N[C@@H](CO)C(=O)N1CCC[C@H]1C(N)=O)[C@@H](C)O)[C@@H](C)O)[C@@H](C)O
notes: also called Ex. #85
B4: [N-terminal(C18 diacid-gGlu), des1, 9V, 30S, 31G]mimylin (peptide)
peptide: {C18 diacid-γGlu}-ASELSTAVLGRLSAELHELATLPRTETGSGSP-NH2
SMILES: CC(C)C[C@H](NC(=O)[C@H](CCC(=O)O)NC(=O)[C@H](Cc1c[nH]cn1)NC(=O)[C@H](CC(C)C)NC(=O)[C@H](CCC(=O)O)NC(=O)[C@H](C)NC(=O)[C@H](CO)NC(=O)[C@H](CC(C)C)NC(=O)[C@H](CCCNC(=N)N)NC(=O)CNC(=O)[C@H](CC(C)C)NC(=O)[C@@H](NC(=O)[C@H](C)NC(=O)[C@@H](NC(=O)[C@H](CO)NC(=O)[C@H](CC(C)C)NC(=O)[C@H](CCC(=O)O)NC(=O)[C@H](CO)NC(=O)[C@H](C)NC(=O)CC[C@H](NC(=O)CCCCCCCCCCCCCCCCC(=O)O)C(=O)O)[C@@H](C)O)C(C)C)C(=O)N[C@@H](C)C(=O)N[C@H](C(=O)N[C@@H](CC(C)C)C(=O)N1CCC[C@H]1C(=O)N[C@@H](CCCNC(=N)N)C(=O)N[C@H](C(=O)N[C@@H](CCC(=O)O)C(=O)N[C@H](C(=O)NCC(=O)N[C@@H](CO)C(=O)NCC(=O)N[C@@H](CO)C(=O)N1CCC[C@H]1C(N)=O)[C@@H](C)O)[C@@H](C)O)[C@@H](C)O
notes: also called Ex. #76
B5: [N-terminal(C18 diacid-gGlu), des1, 30S, 31G, 32P]mimylin (peptide)
peptide: {C18 diacid-γGlu}-ASELSTAALGRLSAELHELATLPRTETGSGPP-NH2
SMILES: CC(C)C[C@H](NC(=O)[C@H](C)NC(=O)[C@H](C)NC(=O)[C@@H](NC(=O)[C@H](CO)NC(=O)[C@H](CC(C)C)NC(=O)[C@H](CCC(=O)O)NC(=O)[C@H](CO)NC(=O)[C@H](C)NC(=O)CC[C@H](NC(=O)CCCCCCCCCCCCCCCCC(=O)O)C(=O)O)[C@@H](C)O)C(=O)NCC(=O)N[C@@H](CCCNC(=N)N)C(=O)N[C@@H](CC(C)C)C(=O)N[C@@H](CO)C(=O)N[C@@H](C)C(=O)N[C@@H](CCC(=O)O)C(=O)N[C@@H](CC(C)C)C(=O)N[C@@H](Cc1c[nH]cn1)C(=O)N[C@@H](CCC(=O)O)C(=O)N[C@@H](CC(C)C)C(=O)N[C@@H](C)C(=O)N[C@H](C(=O)N[C@@H](CC(C)C)C(=O)N1CCC[C@H]1C(=O)N[C@@H](CCCNC(=N)N)C(=O)N[C@H](C(=O)N[C@@H](CCC(=O)O)C(=O)N[C@H](C(=O)NCC(=O)N[C@@H](CO)C(=O)NCC(=O)N1CCC[C@H]1C(=O)N1CCC[C@H]1C(N)=O)[C@@H](C)O)[C@@H](C)O)[C@@H](C)O
notes: also called Ex. #75
B6: [N-terminal(C18 diacid-gGlu), des1, 30S]mimylin (peptide)
peptide: {C18 diacid-γGlu}-ASELSTAALGRLSAELHELATLPRTETGSESP-NH2
SMILES: CC(C)C[C@H](NC(=O)[C@H](C)NC(=O)[C@H](C)NC(=O)[C@@H](NC(=O)[C@H](CO)NC(=O)[C@H](CC(C)C)NC(=O)[C@H](CCC(=O)O)NC(=O)[C@H](CO)NC(=O)[C@H](C)NC(=O)CC[C@H](NC(=O)CCCCCCCCCCCCCCCCC(=O)O)C(=O)O)[C@@H](C)O)C(=O)NCC(=O)N[C@@H](CCCNC(=N)N)C(=O)N[C@@H](CC(C)C)C(=O)N[C@@H](CO)C(=O)N[C@@H](C)C(=O)N[C@@H](CCC(=O)O)C(=O)N[C@@H](CC(C)C)C(=O)N[C@@H](Cc1c[nH]cn1)C(=O)N[C@@H](CCC(=O)O)C(=O)N[C@@H](CC(C)C)C(=O)N[C@@H](C)C(=O)N[C@H](C(=O)N[C@@H](CC(C)C)C(=O)N1CCC[C@H]1C(=O)N[C@@H](CCCNC(=N)N)C(=O)N[C@H](C(=O)N[C@@H](CCC(=O)O)C(=O)N[C@H](C(=O)NCC(=O)N[C@@H](CO)C(=O)N[C@@H](CCC(=O)O)C(=O)N[C@@H](CO)C(=O)N1CCC[C@H]1C(N)=O)[C@@H](C)O)[C@@H](C)O)[C@@H](C)O
notes: also called Ex. #23
B7: [N-terminal(C20 diacid-gGlu), des1, 9S, 21S, 23Y, 30S, 31G, 33Y]mimylin (peptide)
peptide: {C20 diacid-γGlu}-ASELSTASLGRLSAELHELSTYPRTETGSGSY-NH2
SMILES: CC(C)C[C@H](NC(=O)[C@H](CO)NC(=O)[C@H](C)NC(=O)[C@@H](NC(=O)[C@H](CO)NC(=O)[C@H](CC(C)C)NC(=O)[C@H](CCC(=O)O)NC(=O)[C@H](CO)NC(=O)[C@H](C)NC(=O)CC[C@H](NC(=O)CCCCCCCCCCCCCCCCCCC(=O)O)C(=O)O)[C@@H](C)O)C(=O)NCC(=O)N[C@@H](CCCNC(=N)N)C(=O)N[C@@H](CC(C)C)C(=O)N[C@@H](CO)C(=O)N[C@@H](C)C(=O)N[C@@H](CCC(=O)O)C(=O)N[C@@H](CC(C)C)C(=O)N[C@@H](Cc1c[nH]cn1)C(=O)N[C@@H](CCC(=O)O)C(=O)N[C@@H](CC(C)C)C(=O)N[C@@H](CO)C(=O)N[C@H](C(=O)N[C@@H](Cc1ccc(O)cc1)C(=O)N1CCC[C@H]1C(=O)N[C@@H](CCCNC(=N)N)C(=O)N[C@H](C(=O)N[C@@H](CCC(=O)O)C(=O)N[C@H](C(=O)NCC(=O)N[C@@H](CO)C(=O)NCC(=O)N[C@@H](CO)C(=O)N[C@@H](Cc1ccc(O)cc1)C(N)=O)[C@@H](C)O)[C@@H](C)O)[C@@H](C)O
notes: also called Ex. #100

target: T1, human calcitonin receptor (human, UniProt P30988 25-474); test: whole-cell competition vs 125I-human calcitonin (Assay VIIa)
T1 construct: whole, on cells; also called hCT-R; hCTR
T1 sequence (looked up): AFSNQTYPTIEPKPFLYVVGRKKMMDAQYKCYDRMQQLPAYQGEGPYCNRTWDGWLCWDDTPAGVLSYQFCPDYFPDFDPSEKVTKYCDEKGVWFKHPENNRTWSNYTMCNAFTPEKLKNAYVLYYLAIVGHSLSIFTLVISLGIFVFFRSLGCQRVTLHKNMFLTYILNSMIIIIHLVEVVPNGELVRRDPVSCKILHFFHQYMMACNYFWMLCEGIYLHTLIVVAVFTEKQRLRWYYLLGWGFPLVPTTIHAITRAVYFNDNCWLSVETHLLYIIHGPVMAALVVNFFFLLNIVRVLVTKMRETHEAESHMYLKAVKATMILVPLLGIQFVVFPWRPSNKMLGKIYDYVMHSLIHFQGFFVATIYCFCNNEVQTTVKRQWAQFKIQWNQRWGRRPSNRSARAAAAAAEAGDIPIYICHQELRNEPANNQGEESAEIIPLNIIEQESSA
Method in brief: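 BHK tk'ts 13 cells stably co-expressing human calcitonin receptor and a CRE-luciferase reporter, seeded overnight at 37 °C. Bound tracer counted by scintillation after cold HBSS washes and NaOH/SDS lysis; IC₅₀ from one-site competition fit taken as receptor affinity.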

Binder | IC50 [nM]
B1 | 0.767
{C18 diacid-γGlu}-ASEVSTAVLGRLSAELHELATLPRTETGSGSP-NH2 (also called Ex. #86) [[N-terminal(C18 diacid-gGlu), des1, 5V, 9V, 30S, 31G]mimylin] | 0.943
{C18 diacid-γGlu}-ASELTTAVLGRLEAELHELTTLPRTETGTGTP-NH2 [[N-terminal(C18 diacid-gGlu), des1, 6T, 9V, 14E, 21T, 30T, 31G, 32T]mimylin] | 9.15
B2 | 17.3
{C18 diacid-γGlu}-ASELTTAVLGRLSAELHELATLPRTETGSGTP-NH2 (also called Ex. #94) [[N-terminal(C18 diacid-gGlu), des1, 6T, 9V, 30S, 31G, 32T]mimylin] | 0.651
B3 | 0.821
{C18 diacid-γGlu}-ASELTTAVLGRLSAELHELATLPRTETGTGTP-NH2 (also called Ex. #95) [[N-terminal(C18 diacid-gGlu), des1, 6T, 9V, 30T, 31G, 32T]mimylin] | 1.7
B4 | 0.855
B5 | 20.5
B6 | 0.541
{C20 diacid-γGlu}-ASGLSTAALGRLSAELHELATYPRTETGSGSP-NH2 (also called Ex. #79) [[N-terminal(C20 diacid-gGlu), des1, 4G, 23Y, 30S, 31G]mimylin] | 0.385
B7 | 2.82
